Results taken from paper PMC9263151, “Structural and biochemical analyses of the flagellar expression regulator DegU from Listeria monocytogenes”.

Tests used:
[1] = target: DNA-binding domain of Listeria monocytogenes DegU (lmDegUDBD) (Listeria monocytogenes ATCC 15313) (UniProt Q6DL91); assay: crystal structure; lmDegUDBD alone, two chains (A and B) in the asymmetric unit; crystals from 22% PEG 3350, 0.1 M Tris pH 8.0, 18 °C; 2.39 Å
[2] = target: DNA-binding domain of Listeria monocytogenes DegU (lmDegUDBD) (Listeria monocytogenes ATCC 15313) (UniProt Q6DL91); assay: cross-linking; 5 μg protein in 20 mM Hepes pH 7.4, 300 mM sodium chloride, 5 mM β-mercaptoethanol with EDC and sulfo-NHS, 5 min at room temperature; SDS-PAGE, Coomassie staining
lmDegUDBD = target: T1, lmDegUDBD (Listeria monocytogenes ATCC 15313, UniProt Q6DL91 159-228); assay: fluorescence polarization; details: protein: recombinant; tags: N-terminal His6 removed by thrombin; chain copies: 2; blunt
T1 sequence: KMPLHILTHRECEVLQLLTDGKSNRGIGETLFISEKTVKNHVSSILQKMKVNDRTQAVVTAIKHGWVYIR

lmDegUFL = lmDegUFL (Listeria monocytogenes ATCC 15313, UniProt Q6DL91 1-228); assay: fluorescence polarization; unphosphorylated; details: protein: recombinant; tags: C-terminal His6; chain copies: 2; blunt
lmDegUFL D55N = lmDegUFL D55N (Listeria monocytogenes ATCC 15313, UniProt Q6DL91 1-228, D55N); assay: fluorescence polarization; comparable to lmDegUFL; details: protein: recombinant; tags: C-terminal His6; chain copies: 2; blunt
lmDegUFL D55E = lmDegUFL D55E (Listeria monocytogenes ATCC 15313, UniProt Q6DL91 1-228, D55E); assay: fluorescence polarization; affinity not significantly changed vs lmDegUFL; details: protein: recombinant; tags: C-terminal His6; chain copies: 2; blunt
lmDegURD = lmDegURD (Listeria monocytogenes ATCC 15313, UniProt Q6DL91 1-143); assay: EMSA; no shift; details: protein: recombinant; tags: N-terminal His6 removed by TEV; chain copies: 2; blunt

“DNA-binding domain of Listeria monocytogenes DegU (lmDegUDBD) (from UniProt Q6DL91 159-228) (domain or fragment)” showed a stoichiometry N [1] of 2 and a stoichiometry N [2] of 2.

B1: fliN-gmaR operator 36-bp dsDNA, fluorescein (dsDNA)
DNA 1: CGAGTAGGTCAAAAGGATTGGGTATGAAGAACCTTT
DNA 2: AAAGGTTCTTCATACCCAATCCTTTTGACCTACTCG
In the case of B1, the Kd (lmDegUDBD) is reported as 6.7 ± 2.3 µM, the Kd (lmDegUFL) is reported as 0.173 ± 0.026 µM and the binding result (lmDegUFL D55N) is reported as “binds”. B1: binds (lmDegUFL D55E).

B2: fliN-gmaR operator 36-bp dsDNA, unlabeled (dsDNA)
DNA 1: CGAGTAGGTCAAAAGGATTGGGTATGAAGAACCTTT
DNA 2: AAAGGTTCTTCATACCCAATCCTTTTGACCTACTCG
B2: no binding (lmDegURD).
